From PMC9039656

Molecular target: T1, PAP1 R2R3-MYB domain (UniProt Q9FE25 1-178)
T1 sequence: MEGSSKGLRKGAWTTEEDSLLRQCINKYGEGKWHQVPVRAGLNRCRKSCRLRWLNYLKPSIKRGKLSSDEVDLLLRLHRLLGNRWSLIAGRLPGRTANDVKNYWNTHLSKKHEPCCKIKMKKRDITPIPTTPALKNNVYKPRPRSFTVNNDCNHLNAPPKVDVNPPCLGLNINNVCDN
Assay: EMSA

B1: NtPMT2 MRE-like probe (dsDNA)
DNA 1: CCAACAACCGCGCCAACAACCGCGCCAACAACCGCG
DNA 2: CGCGGTTGTTGGCGCGGTTGTTGGCGCGGTTGTTGG
- binding result: no binding
